Reference: patent US20220213506A1 (Sanofi, published 2022)

Legend:
[1] = biological target: T1, Aβ1-42 fibrils (Aβ1-42 peptide, Bachem H-1368) (UniProt P05067 672-713); experiment: SPR (Biacore T200), antibody flowed over amine-coupled Aβ1-42 fibrils, 1:1 fit, apparent KD
T1 construct: domain: Aβ1-42; Fibrils were immobilized on the sensor chip by amine coupling, so this is a multimeric aggregate; also called fibrillar Aβ1-42; immobilized Aβ1-42 fibrils

[2] = biological target: T1, Aβ1-42 fibrils (Aβ1-42 peptide, Bachem …); experiment: SPR (Biacore T200): Aβ1-42 fibrils immobilised on the sensor chip by amine coupling, antibody injected at 5-50 nM, global fit to a 1:1 binding model
[3] = biological target: T1, Aβ1-42 fibrils (Aβ1-42 peptide, Bachem …); experiment: SPR (Biacore T200), scFv-IgG flowed over amine-coupled Aβ1-42 fibrils, 1:1 fit, apparent KD
[4] = biological target: T1, Aβ1-42 fibrils (Aβ1-42 peptide, Bachem …); experiment: SPR (Biacore T200): Aβ1-42 fibrils immobilised on the sensor chip by amine coupling, scFv-IgG injected at 5-50 nM, global fit to a 1:1 binding model

T1 sequence (P05067 672-713 limits assumed): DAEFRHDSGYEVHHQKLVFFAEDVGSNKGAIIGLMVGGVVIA

B1: parental 13C3 anti-amyloid beta antibody (murine IgG) (antibody, V domains shown)
VH: EVQLQQSGPEVVKPGVSVKISCKGSGYTFTDYAMHWVKQSPGKSLEWIGVISTKYGKTNYNPSFQGQATMTVDKSSSTAYMELASLKASDSAIYYCARGDDGYSWGQGTSVTVSS
VL: EIVMTQTPLSLPVSLGDRASISCRSGQSLVHSNGNTYLHWYLQKPGQSPKLLIYTVSNRFSGVPDRFSGSGSGSDFTLTISRVEAEDLGVYFCSQNTFVPWTFGGGTKLEIK
notes: The SPR text says only 'parental IgG' or 'parental antibody'; The scFv-IgG derives from the murine 13C3 antibody (mouse IgG1); also called parental IgG; parental antibody
[1]
  Kd: 0.13 nM
[2]
  Kd: 0.132 nM

B2: anti-Aβ scFv-IgG (Fc fusion)
scFv: SEIVMTQTPLSLPVSLGDRASISCRSGQSLVHSNGNTYLHWYLQKPGQSPKLLIYTVSNRFSGVPDRFSGSGSGSDFTLTISRVEAEDLGVYFCSQNTFVPWTFGGGTKLEIKRTSSGGGGSGGGGSGGGGSEVQLQQSGPEVVKPGVSVKISCKGSGYTFTDYAMHWVKQSPGKSLEWIGVISTKYGKTNYNPSFQGQATMTVDKSSSTAYMELASLKASDSAIYYCARGDDGYSWGQGTSVTVSSASTGGGGGGGGGSGVPRDCGCKPCICTVPEVSSVFIFPPKPKDVLTITLTPKVTCVVVDISKDDPEVQFSWFVDDVEVHTAQTQPREEQFASTFRSVSELPIMHQDWLNGKEFKCRVNSAAFPAPIEKTISKTKGRPKAPQVYTIPPPKEQMAKDKVSLTCMITDFFPEDITVEWQWNGQPAENYKNTQPIMDTDGSYFVYSKLNVQKSNWEAGNTFTCSVLHEGLHNHHTEKSLSHSPGSGSGSGSHHHHHH
notes: Disulfide-linked homodimer; For SPR the protein was expressed in Expi293 cells and purified by IMAC; also called silent scFv-IgG; AAV-scFv-IgG (vector-expressed form)
[3]
  Kd: 0.52 nM
[4]
  Kd: 0.525 nM
